Target: huRPA32 (human RPA32) (human, UniProt P15927 1-270)
Assay: EMSA; [Protein]50 by linear interpolation; DNA 30 fmol/uL; no extract; 40 mM Tris-HCl pH 7.5, 50 mM NaCl, 37 C, 60 min; 8% native PAGE in TBE, 100 V 1 h
Details: protein: recombinant; single-stranded

Sequence of huRPA32 (human RPA32) (P15927 whole entry): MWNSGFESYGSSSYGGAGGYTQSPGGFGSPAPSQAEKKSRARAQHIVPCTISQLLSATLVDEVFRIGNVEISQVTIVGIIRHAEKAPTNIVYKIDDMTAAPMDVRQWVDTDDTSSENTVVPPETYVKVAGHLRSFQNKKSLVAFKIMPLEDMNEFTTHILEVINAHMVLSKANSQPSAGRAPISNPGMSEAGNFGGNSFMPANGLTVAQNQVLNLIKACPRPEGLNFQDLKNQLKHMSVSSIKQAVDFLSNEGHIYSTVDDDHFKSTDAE

TTTTTTTTTTTTTTTTTTTTTTTTT (ssDNA) [dT25]
apparent K (half saturation): 5.7 ± 0.6 µM

— article PMC12115182, “Inhibition of RPA32 and Cytotoxic Effects of the Carnivorous Plant Sarracenia purpurea Root Extract in Non-Small-Cell Lung Cancer Cells”
